Biological target: the molecule itself
Experiment: crystal structure

B1: Recombinant wild-type Phanerochaete chrysosporium pyranose 2-oxidase (PcP2O_(RECWT)), full-length residues 1-621 with N-terminal T7-epitope tag and C-terminal … (enzyme, UniProt Q6QWR1 10-621, looked up)
chain: ADEPYDVFIAGSGPIGATFAKLCVDANLRVCMVEIGAADSFTSKPMKGDPNAPRSVQFGPGQVPIPGYHKKNEIEYQKDIDRFVNVIKGALSTCSIPTSNNHIATLDPSVVSNSLDKPFISLGKNPAQNPFVNLGAEAVTRGVGGMSTHWTCATPEFFAPADFNAPHRERPKLSTDAAEDARIWKDLYAQAKEIIGTSTTEFDHSIRHNLVLRKYNDIFQKENVIREFSPLPLACHRLTDPDYVEWHATDRILEELFTDPVKRGRFTLLTNHRCTKLVFKHYRPGEENEVDYALVEDLLPHMQNPGNPASVKKIYARSYVVACGAVATAQVLANSHIPPDDVVIPFPGGEKGSGGGERDATIPTPLMPMLGKYITEQPMTFCQVVLDSSLMEVVRNPPWPGLDWWKEKVARHVEAFPNDPIPIPFRDPEPQVTIKFTEEHPWHVQIHRDAFSYGAVAENMDTRVIVDYRFFGYTEPQEANELVFQQHYRDAYDMPQPTFKFTMSQDDRARARRMMDDMCNIALKIGGYLPGSEPQFMTPGLALHLAGTTRCGLDTQKTVGNTHCKVHNFNNLYVGGNGVIETGFAANPTLTSICYAIRASNDIIAKFGRHRG
Question: With B1 as the protein, how does the “stoichiometry N” value read?
Answer: 4
